Legend:
[1] = target: T1, GP2 on K562-GP2 cells (UniProt P55259 29-512, limits assumed); experiment: 24 h co-culture of MSLN CAR (LG1 CAR) T cells with K562-GP2 target cells, end-point luciferase cytotoxicity, RNP-only T cells as control
T1 construct: whole, on cells
From the text: (§1) T cells from four donors were engineered to constitutively express the MSLN CAR (LG1 CAR) using the manufacturing process described in Example 1 and were frozen and cryobanked at Day 9 after initial activation. […] On the day of the assay, MSLN CAR and RNP only control T cells were counted and resuspended in medium without IL-7 and IL-15 and serially diluted and added to 96-well flat-bottom, white-walled assay plates. The serial dilution of T cells results in the following co-culture effector:target (E:T) ratios once 1e4 THP-1 or K562 (negative control), K562-MSLN (positive control) and K562-GP2 target cells were added/well: 3:1, 1:1, 1:3 in technical duplicates. Prepared plates with T cells and target cells were incubated at 37° C. for 24 hours with a breathable membrane on each plate. Cytotoxicity at the end of the 24 hour co-culture was measured using an end-point luciferase assay.

[2] = target: T2, SLC2A9 on THP-1 cells (UniProt Q9NRM0 1-540, limits assumed); experiment: 24 h co-culture of MSLN CAR (LG1 CAR) T cells with THP-1 (SLC2A9+) target cells, end-point luciferase cytotoxicity, RNP-only T cells as control
T2 construct: whole, on cells; also called SLC2A9+ cells (THP-1 cells)
T2 sequence (looked up): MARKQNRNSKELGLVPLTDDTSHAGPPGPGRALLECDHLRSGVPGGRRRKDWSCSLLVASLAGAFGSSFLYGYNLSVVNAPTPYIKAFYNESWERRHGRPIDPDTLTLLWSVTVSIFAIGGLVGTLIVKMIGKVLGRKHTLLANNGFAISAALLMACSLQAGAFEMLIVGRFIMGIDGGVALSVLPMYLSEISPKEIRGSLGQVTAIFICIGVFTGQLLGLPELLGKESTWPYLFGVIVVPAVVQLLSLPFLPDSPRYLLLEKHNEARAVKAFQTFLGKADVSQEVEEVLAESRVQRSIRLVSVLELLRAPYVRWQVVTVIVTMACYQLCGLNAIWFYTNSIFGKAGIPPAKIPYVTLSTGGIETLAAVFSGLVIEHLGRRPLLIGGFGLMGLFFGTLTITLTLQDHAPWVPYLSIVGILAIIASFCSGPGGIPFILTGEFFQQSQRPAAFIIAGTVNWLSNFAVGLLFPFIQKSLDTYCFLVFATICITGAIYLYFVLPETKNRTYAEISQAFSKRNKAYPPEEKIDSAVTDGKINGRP
From the text: as §1

[3] = target: T3, ALPG-AF647 (human, UniProt P10696, AF647 fluorophore label, site not given); experiment: flow cytometry, primary T cells with constitutive CAR and no PrimeR, stained with ALPG-AF647 and MSLN-Bio / streptavidin-PE; reagent concentration not given
T3 construct: soluble labelled staining reagent; Same protein as m5, here as a soluble staining reagent
T3 sequence (P10696 20-503 limits assumed): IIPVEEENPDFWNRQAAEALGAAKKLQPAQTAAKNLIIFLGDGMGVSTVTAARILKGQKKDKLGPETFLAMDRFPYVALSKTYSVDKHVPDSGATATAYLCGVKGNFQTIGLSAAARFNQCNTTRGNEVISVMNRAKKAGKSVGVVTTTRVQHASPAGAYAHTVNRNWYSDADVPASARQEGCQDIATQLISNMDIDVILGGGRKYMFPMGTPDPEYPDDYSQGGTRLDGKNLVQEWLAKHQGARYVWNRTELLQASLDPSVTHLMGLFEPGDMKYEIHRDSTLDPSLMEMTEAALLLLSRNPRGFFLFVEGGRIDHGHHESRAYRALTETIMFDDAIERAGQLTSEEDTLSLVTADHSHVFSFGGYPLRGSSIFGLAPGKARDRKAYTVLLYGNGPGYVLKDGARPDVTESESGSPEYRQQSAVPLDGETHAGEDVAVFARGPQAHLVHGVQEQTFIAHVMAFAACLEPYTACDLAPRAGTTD

T1 sequence (P55259 29-512 limits assumed): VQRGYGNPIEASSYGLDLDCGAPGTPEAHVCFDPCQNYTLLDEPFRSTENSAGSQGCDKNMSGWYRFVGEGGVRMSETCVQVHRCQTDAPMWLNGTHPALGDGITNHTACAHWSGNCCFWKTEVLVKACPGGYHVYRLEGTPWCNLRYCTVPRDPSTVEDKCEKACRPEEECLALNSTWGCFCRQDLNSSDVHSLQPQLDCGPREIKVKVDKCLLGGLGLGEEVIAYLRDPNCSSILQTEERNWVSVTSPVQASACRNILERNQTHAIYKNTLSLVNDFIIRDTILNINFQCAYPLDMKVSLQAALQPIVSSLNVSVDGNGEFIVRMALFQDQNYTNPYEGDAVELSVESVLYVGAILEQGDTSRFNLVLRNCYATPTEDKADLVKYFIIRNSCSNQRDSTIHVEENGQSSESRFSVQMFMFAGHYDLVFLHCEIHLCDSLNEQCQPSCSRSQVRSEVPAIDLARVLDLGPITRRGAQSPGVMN

B1: MSLN CAR (LG1 CAR) (other)
chain: QLQLQESGPGLVKPSETLSLTCTVSGGSISNSYYWGWIRQPPGKGLEWIGSIYHSGNTYYNPSLKSRVTISVDTSKNQFSLKLSSVTAADTAVYYCVTQDGVGATTTEEYWGQGTLVTVSSAAATTTPAPRPPTPAPTIASQPLSLRPEACRPAAGGAVHTRGLDFACDIYIWAPLAGTCGVLLLSLVITLYCKRGRKKLLYIFKQPFMRPVQTTQEEDGCSCRFPEEEEGGCELRVKFSRSADAPAYQQGQNQLYNELNLGRREEYDVLDKRRGRDPEMGGKPRRKNPQEGLYNELQKDKMAEAYSEIGMKGERRRGKGHDGLYQGLSTATKDTYDALHMQALPPR
notes: Chimeric antigen receptor on engineered primary human T cells; also called MSLN LG1 CAR
Question: Does B1 bind [1]?
Answer: no binding (tested: E:T 3:1)

Question: Does B1 bind [2]?
Answer: no binding (tested: E:T 3:1)

Question: Does B1 bind [3]?
Answer: no binding

Source: patent publication US20250250350A1 (ARSENAL BIOSCIENCES, published 2025)
